# In article doi:10.1101/2023.07.28.550924 (bioRxiv, 2023):
# T1: Spirochaeta thermophila YeeE (Spirochaeta thermophila, UniProt G0GAP6 1-328)
# T1 sequence (looked up): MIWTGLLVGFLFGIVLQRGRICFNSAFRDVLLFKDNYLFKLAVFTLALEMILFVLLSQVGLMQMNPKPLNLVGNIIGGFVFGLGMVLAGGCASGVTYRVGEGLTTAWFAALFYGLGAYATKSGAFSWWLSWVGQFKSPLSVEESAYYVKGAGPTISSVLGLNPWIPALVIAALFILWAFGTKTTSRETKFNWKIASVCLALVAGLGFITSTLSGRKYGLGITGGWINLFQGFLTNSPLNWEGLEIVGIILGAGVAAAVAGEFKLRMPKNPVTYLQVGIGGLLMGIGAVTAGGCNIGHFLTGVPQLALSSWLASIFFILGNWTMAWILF
# What was measured:
# SEC = target: the molecule itself; assay: SEC
# [1] = target: T1, Spirochaeta thermophila YeeE; assay: BLI
binder,measurement,setting,value
"Spirochaeta thermophila YeeD, His-tagged, wild type (natural protein, UniProt G0GAP7 1-80, looked up) MANYQVSKEIDVRGEVCPIPDVEAKRAVQSANDGEIILVRIDYPLSKERIPETVKKLGSEVLEIEEAAPGEWNIYIKVKK",stoichiometry N,SEC,2
same,Kd,[1],1600 ± 200 nM
